Target: Bio-GrBP5 (biotin-graphite binding peptide fusion, Bio-…)
Test: integrated photoluminescence at 605 nm (514 nm laser) of SA-QD immobilised on bio-GrBP5 nanowires on graphite; the row 'SA-QD Bare' (38019.9, Std. Dev. 8427) is on graphite without peptide

- Intensity (AU): 88200 AU
Substance: Cd-Se Qdot 605-streptavidin conjugate (Q10101MP, Life Technologies) (from UniProt P22629 37-163)
